# Data: patent publication US20230272055A1 (Incyte, published 2023)
# B1: anti-mutCALR antibody clone 32 (antibody, human IgG1, lambda, V domains shown)
# VH: QVQLVQSGAEVKKPGATVKISCKVSGYSFTDYFIHWVQQAPGKGLAWVGLVDPEDGETIYAEKFQGRVTITADTSTDTAYMELSSLRSEDTAVYYCATPGGILTDPDAFDIWGQGTMVTVSS
# VL: QSALTQPASVSGSPGQSITISCTGTSSDVGGYNYVSWYQQHPGKAPKLMIYEVSNRPSGVSNRFSGSKSGNTASLTISGLQAEDEADYYCSSYTSSSTPYVFGTGTKVTVLG
# notes: also called anti-mutCALR antibody 32
# Legend:
# [1] = molecular target: MBP protein (UniProt P0AEX9 27-392 = MBP); assay: SPR (Biacore 8K), antibody captured on anti-human IgG (Fc), MBP injected
# [2] = molecular target: T1, recombinant Flag tag_GFP_tev_hmutCALR Type 1 (human); assay: HTRF competition: preformed complex of 5 nM Flag-GFP-mutCALR Type 1 and 80 nM His-MPL, anti-FLAG-Europium / anti-6xHis-APC, 90 min reading; blocked ligand: His-MPL
# T1 construct: also called FLAG-GFP-tev-mutCALR
# Protocol: HTRF detection solution (2 nM anti-FLAG-Europium, and 100 nM anti-6×His-SureLight® APC) was then added and the plate was read on BMG PHERAstar FSX using kinetic HTRF protocol, obtaining readings every 15 minutes for 120 minutes total. […] Percent-of-control values were obtained by dividing the background-subtracted HTRF Ratios for each test well by the buffer control well in the same plate row.
binder,measurement,setting,value
B1,binding result,[1],no binding (tested: 250 nM)
same,binding result,[2],binds
